B1: SlG2 (Solanum lycopersicum) (protein)
chain: IATNEKVVMEKEEFNFKVYVAEKAICVNKALDEAIMVKDPPKIHEAMRYSLLAGGKRVRPMLCLAACELVGGNQGNAMAAACAVEMIHTMSLIHDDLPCMDDDDLRRGKPTNHKVYGEDVAVLAGDALLAFAFEYLATATTGVPPSRILVAVAELAKSVGTEGLVAGQVADLACTGNPNVGLEMLEFIHIHKTAALLEASVVIGAILGGGADEEVDKLRRFAQCIGLLFQVVDDILDVTKSSSELGKTAGKDLAVDKTTYPKLLGLEKAKEFAAELNGEAKQQLAAFDSHKAAPLIALADYIANRQN
B2: SlG1 (Solanum lycopersicum) (protein)
chain: VSSKAEKFILPEFEFQEYMVTKAIKVNKALDEAIPMQEPIKVHEAMRYSLLAGGKRVRPILCMASCEVVGGDESLAIPAACAVEMIHTMSLVHDDLPCMDNDDLRRGKPTNHKIFGENTAVLAGDALLSLAFEHVATKTQNVPPQRVVQAIGELGSAVGSEGLVAGQIVDLASEGKQVSLTELEYIHHHKTSKLLEAAVVCGAIMGGGNEVDVERMRSYARCIGLLFQVVDDILDVTKSSDELGKTAGKDLITDKATYPKLMGLEKARQYAGELMAKAMNELSYFDYAKAAPLYHIASYIANRQN
B3: AtG11 (Arabidopsis thaliana) (protein)
chain: SSIVSSSVVTKEDNLRQSEPSSFDFMSYIITKAELVNKALDSAVPLREPLKIHEAMRYSLLAGGKRVRPVLCIAACELVGGEESTAMPAACAVEMIHTMSLIHDDLPCMDNDDLRRGKPTNHKVFGEDVAVLAGDALLSFAFEHLASATSSDVVSPVRVVRAVGELAKAIGTEGLVAGQVVDISSEGLDLNDVGLEHLEFIHLHKTAALLEASAVLGAIVGGGSDDEIERLRKFARCIGLLFQVVDDILDVTKSSKELGKTAGKDLIADKLTYPKIMGLEKSREFAEKLNREARDQLLGFDSDKVAPLLALANYIAYRQN

Substrate in the first data set: C=C(C)CCO[P@@](=O)(O)OP(=O)(O)O
The experiment in a line: purified protein. As to conditions: co-substrate 100 µM DMAPP.
Regarding B1, the Km came out at 79.75 ± 8.33 µM.

On to B2, for which the Km is reported as 74.18 ± 7.55 µM.

Regarding B3, the Km is 38.49 ± 4.94 µM.

Substrate in another data set: CC(C)=CCOP(=O)(O)OP(=O)(O)O
As to the kind of experiment: purified protein. The following applies: co-substrate 100 µM IPP.
With B1, the Km is reported as 49.55 ± 5.31 µM.

In the case of B2, the Michaelis-Menten constant (Km) came out at 31.82 ± 2.92 µM.

As to B3, the Michaelis-Menten constant (Km) stood at 32.86 ± 4.86 µM.

For orientation: Km means the concentration of substrate that gives half-maximal velocity.

These data come from doi:10.1101/2020.07.08.194076v1.
